Source: PMC11842775

Biological target: 6xHis-tagged Mac3-V570R
Test: in vitro aggregation assay (turbidity, OD320 over time)
Settings: read at t = 60 min; purified 6xHis-tagged proteins; parent: est. 0.81; read off a plot

Substance: 6xHis-tagged Mac3 V570R
- response: 0.5 OD320
